Results from patent US20250289901A1 (CHONGQING GENRIX BIOPHARMACEUTICAL, published 2025).

Tests used:
[1] = biological target: T1, CD3E on the surface of Jurkat human acute T lymphocyte leukemia cell (human, UniProt P07766 23-207); test: flow cytometry on Jurkat cells, goat anti-human IgG-FITC
T1 construct: whole, on cells; also called CD3 positive Jurkat cells
Method: (§1) Jurkat human acute T-lymphocyte leukemia cells (Cell Resource Center, Institute of Basic Medicine, Chinese Academy of Medical Sciences) in the logarithmic growth phase were harvested, centrifuged, and resuspended in PBS buffer containing 1% BSA to 2×10⁶ cells/mL, and plated at 100 μL/well in 96-well V bottom plates. […] Next, the cells were washed three times with 200 μL of PBS solution, and suspended in 100 μL of PBS solution. Thereafter, the FITC channel was detected by flow cytometer (ACEA, Novocyte).

[2] = biological target: T2, extracellular region of human BCMA with C-terminal His tag (human, UniProt Q02223 1-54); test: bridging ELISA: CD3E-FcK/CD3D-FcH coated, antibody, then BCMA-His, detected with HRP anti-His
T2 construct: No linker between the extracellular region and the tag is stated; also called hBCMA-his; hBCMA-His
T2 sequence: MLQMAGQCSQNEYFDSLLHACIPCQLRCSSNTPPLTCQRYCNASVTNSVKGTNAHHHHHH
Method: A 96-well ELISA plate was coated with CD3E-FcK/CD3D-FcH antigen (3 μg/mL, 100 μL/well), and was coated overnight in a refrigerator at 4° C. […] The ELISA plate was washed with PBS-0.1% Tween 20, followed by addition of BCMA-His antigen (1 μg/mL, 100 μL/well) and incubation at 37° C. for 1 hour. The ELISA plate was washed with PBS-0.1% Tween 20, followed by addition of HRP mouse anti-his IgG (Beijing ComWin Biotech Co., Ltd., cw0285M) and incubation at 37° C. for 1 hour. The ELISA plate was washed with PBS-0.1% Tween 20, and OPD substrate color development solution was added. The color development was terminated with 1 M H2SO4 after 5-10 minutes.

[3] = biological target: T3, BCMA on the surface of NCI-H929 human plasma cell leukemia cell (human, UniProt Q02223 1-184); test: flow cytometry on NCI-H929 cells, goat anti-human IgG-FITC
T3 construct: whole, on cells; also called BCMA positive NCI-H929 cells; BCMA-positive tumor cells
T3 sequence (looked up): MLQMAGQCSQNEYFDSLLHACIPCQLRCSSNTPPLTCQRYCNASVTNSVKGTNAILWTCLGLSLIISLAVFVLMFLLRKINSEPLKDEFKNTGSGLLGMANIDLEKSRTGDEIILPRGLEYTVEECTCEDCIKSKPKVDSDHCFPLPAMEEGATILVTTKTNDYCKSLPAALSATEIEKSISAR
Method: as §1, with “NCI-H929” for “Jurkat”, “plasma cell” for “acute T-lymphocyte”, “in” for “in the”

T1 sequence (P07766 23-207): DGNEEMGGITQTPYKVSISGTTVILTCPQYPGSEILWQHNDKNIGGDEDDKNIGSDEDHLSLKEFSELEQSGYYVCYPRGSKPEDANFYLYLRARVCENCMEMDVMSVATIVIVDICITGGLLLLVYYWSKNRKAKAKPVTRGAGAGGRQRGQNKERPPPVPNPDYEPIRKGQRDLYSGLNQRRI

B1: anti-CD3E monoclonal antibody H10B7+L9B9 (antibody, human IgG1, kappa, V domains shown)
VH: QVQLVESGGGVVQPGRSLRLSCAASGFKFSGYGMHWVRQAPGKGLEWVAVIWFDGSRKYYVDSVKGRFTISRDNSKNTLYLQMNSLRAEDTAVYYCARQMGYWHFGLWGRGTLVTVSS
VL: DIQMTQSPSSLSASVGDRVTITCRASQSISNYLTWYQQKPGKAPKLLIYEASSRPSGVPSRFSGSGSGTDFTLTISSLQPEDFATYYCQQWSRLPVTFGQGTKVEIKR
In the case of B1, the “EC50 (read off the curve)” value [1] is reported as about 1 nM and the binding result [2] is reported as “no binding”.

B2: anti-BCMA monoclonal antibody H13F1+L9B9 (antibody, human IgG1, kappa, V domains shown)
VH: QVQLVQSGAEVKKPGSSVKVSCKASGYTFTNYWMHWVRQAPGQGLEWMGATYRGHSDTYYNQKFKGRVTITADKSTSTAYMELSSLRSEDTAVYYCTRGAVYAGYDVLDYWGQGTTVTVSS
VL: DIQMTQSPSSLSASVGDRVTITCRASQSISNYLTWYQQKPGKAPKLLIYEASSRPSGVPSRFSGSGSGTDFTLTISSLQPEDFATYYCQQWSRLPVTFGQGTKVEIKR
notes: also called mutant of C4 (IgG1 subtype)
With B2 the “EC50 (read off the curve)” value [3] was about 8 nM.

B3: bispecific antibody CD3ExBCMA (bispecific antibody, human IgG1, kappa)
heavy 1: QVQLVESGGGVVQPGRSLRLSCAASGFKFSGYGMHWVRQAPGKGLEWVAVIWFDGSRKYYVDSVKGRFTISRDNSKNTLYLQMNSLRAEDTAVYYCARQMGYWHFGLWGRGTLVTVSSASTKGPSVFPLAPSSKSTSGGTAALGCLVKDYFPEPVTVSWNSGALTSGVHTFPAVLQSSGLYSLSSVVTVPSSSLGTQTYICNVNHKPSNTKVDKRVEPKSCDKTHTCPPCPAPEFEGGPSVFLFPPKPKDTLMISRTPEVTCVVVDVSHEDPEVKFNWYVDGVEVHNAKTKPREEQYNSTYRVVSVLTVLHQDWLNGKEYKCKVSNKALPASIEKTISKAKGQPREPQVYTLPPCREEMTKNQVSLWCLVKGFYPSDIAVEWESNGQPENNYKTTPPVLDSDGSFFLYSKLTVDKSRWQQGNVFSCSVMHEALHNHYTQKSLSLSPGK
heavy 2: QVQLVQSGAEVKKPGSSVKVSCKASGYTFTNYWMHWVRQAPGQGLEWMGATYRGHSDTYYNQKFKGRVTITADKSTSTAYMELSSLRSEDTAVYYCTRGAVYAGYDVLDYWGQGTTVTVSSASTKGPSVFPLAPSSKSTSGGTAALGCLVKDYFPEPVTVSWNSGALTSGVHTFPAVLQSSGLYSLSSVVTVPSSSLGTQTYICNVNHKPSNTKVDKRVEPKSCDKTHTCPPCPAPEFEGGPSVFLFPPKPKDTLMISRTPEVTCVVVDVSHEDPEVKFNWYVDGVEVHNAKTKPREEQYNSTYRVVSVLTVLHQDWLNGKEYKCKVSNKALPASIEKTISKAKGQPREPQVCTLPPSREEMTKNQVSLSCAVKGFYPSDIAVEWESNGQPENNYKTTPPVLDSDGSFFLVSKLTVDKSRWQQGNVFSCSVMHEALHNHYTQKSLSLSPGK
light: not shown
notes: It is a knob-into-hole IgG1 heterodimer with a common light chain; also called CD3E × BCMA; CD3 × BCMA
In the case of B3, the “EC50 (read off the curve)” value [3] is reported as about 8 nM.
